Source: patent US20240294624A1, “ANTI-ERYTHROPOIETIN ANTIBODY” (ANDREMACON S.R.L., priority 2021, published 2024)

What was measured:
A549 [1] = test: MTT cell viability assay; assay type: cell-based, human; details: 96 hours, 6 μg/ml
Text: J. Lung carcinoma cell line (A549): human lung cancer cells used for drug efficacy screening, biochemical mechanisms and alveolar differentiation;

HOC84 = test: MTT cell viability assay; assay type: cell-based, human; details: 96 hours, 6 μg/ml
Text: N. Human ovarian Cell (HOC) cultured in stem cell condition. In particular, HOC84 stem cells were obtained by digestion and cell isolation form a patient-derived xenograft (PDX) model from a high grade serous epithelial ovarian cancer, obtained by serial passages in nude mice.

A2780 = test: Caspase Glo 3/7 assay; assay type: cell-based, human
Procedure: (§1) Furthermore, cellular models were treated the above-mentioned pharmacological drugs and apoptotic effect was evaluated by caspase activity.
(§2) Data are expressed as the mean±standard deviation of at least 3 experiments in triplicate. *P<0.05 versus CTR for all treatments tested.

A549 [2] = test: Caspase Glo 3/7 assay; assay type: cell-based, human
Procedure: as §1, §2

DLD1 = test: Caspase Glo 3/7 assay; assay type: cell-based, human
Procedure: as §1, §2

GBM-CSCs = test: Caspase Glo 3/7 assay; assay type: cell-based, human
Procedure: as §1, §2

GECs = test: Caspase Glo 3/7 assay; assay type: cell-based, human
Procedure: as §1, §2

GSCs = test: Caspase Glo 3/7 assay; assay type: cell-based, human
Procedure: as §1, §2

K562 = test: Caspase Glo 3/7 assay; assay type: cell-based, human
Procedure: as §1, §2

LNCAP = test: Caspase Glo 3/7 assay; assay type: cell-based, human
Procedure: as §1, §2

MCF-7 = test: Caspase Glo 3/7 assay; assay type: cell-based, human
Procedure: as §1, §2

PC-3 = test: Caspase Glo 3/7 assay; assay type: cell-based, human
Procedure: as §1, §2

SHSY-5Y = test: Caspase Glo 3/7 assay; assay type: cell-based, human
Procedure: as §1, §2

[3] = system: anaplastic astrocytoma cancer stem cells; test: Caspase Glo 3/7 assay; assay type: cell-based, human
Procedure: as §1, §2

GBM-ECs = test: Tube formation assay on Matrigel; assay type: cell-based, human; details: 48 h
Procedure: GBM-ECs (1×10^4) were plated on 10 μL of Matrigel in BM, as a Control Condition (CTR, FIG. 8A) or in media containing the anti-EPO (C4) (FIG. 8B), TMZ (FIG. 8C), FTY720 (FIG. 8D), and anti-EPO (C4)+TMZ+FTY720 (FIG. 8E) treatments, as reported above. GBM-ECs were incubated at 37° C., 5% C02, 5% 02. After 48 h, tube-like structure formation was evaluated by phase-contrast microscopy.

S-ECs = test: Tube formation assay on Matrigel; assay type: cell-based, human; details: 48 h
Procedure: S-ECs (1×10^4) were plated on 10 μL of Matrigel in BM, as a Control Condition (CTR, FIG. 19A) or in media containing the anti-EPO (C4) (FIG. 19B), FTY720 (FIG. 19C), and anti-EPO (C4)+FTY720 (FIG. 19D) treatments, as reported above. S-ECs were incubated at 37° C., 5% C02, 5% 02. After 48 h, tube-like structure formation was evaluated by phase-contrast microscopy. […] Data are expressed as the mean±standard deviation of at least 3 experiments in triplicate. * P<0.05 versus CTR for treatments tested.

S1PR1 = S1PR1 expression by immunofluorescence; assay type: cell-based, human; details: S-ECs of pathological synovium
Procedure: ECs (1×10^4/well) were seeded into μ-Slide 8 Well, ibiTreat (Ibidi, Martinsried, Germany) collagen-coated. When cells reached the desired confluence, were fixed in paraformaldehyde 4% for 20 min at RT, washed twice with D-PBS and incubated with 0.1 M glycine to quench auto-fluorescence. Then, the coverslip was incubated with PBS+0.25% Triton ×100 to permeabilize cell membranes and then blocked in PBS+5% BSA for 30 min at RT. Incubation with anti-S1 PR1 primary antibody diluted in blocking buffer was performed overnight at 4° C. The following day, primary antibody was removed and fluorescent secondary antibody labelling was then added for 45 min at RT, protected from light, washed and finally, the coverlips were mounted with ProLong Gold Antifade Mountant (ThermoFisher). Immunolabeling was acquired using an inverted DM14 microscope equipped with DFC350×CCDcamera and LAS-X software (all from Leica Microsystems, Wetzlar, Germany). […] S1 PR1 levels are increased in pro-tumoral and pro-angiogenic conditions, when intracellular and extracellular levels of S1 P are presented. It is possible therefore to hypothesize the use of the anti-EPO (C4) antibody, such as in direct intra-articular treatment in the form of gel or suspension, in association or not with “coagulation factors and their derivatives” and also comprising FTY720 and negative modulators of the sphingosine-1-phosphate pathway.

[4] = Hematological toxicity, blood count; assay type: in vivo; details: mice; IV 10 mg/Kg; 18 days
Procedure: Blood samples (100 μL) were collected into K3EDTA coated tubes, which were placed on a rotary mixer for at least 30 min, then analyzed for hematological analysis.
FIGS. 27 and 28 refer to blood count of mice treated intravenously (IV) for 18 days (T18) with anti-EPO at 10 mg/Kg. (A) RBC: red blood cells; (B) HGB: hemoglobin; (C) HCT: hematocrit; (D) MCV: mean corpuscular volume; (E) MCH: mean corpuscular hemoglobin; (F) MCHC: mean corpuscular hemoglobin concentration; (G) RDW: red cell distribution width; (H) RET: reticulocyte Count; (I) PLT: platelets. Data are means±SD (FIG. 27) and A) WBC: white blood cells; (B) NEUT: neutrophils; (C) LYMP: lymphocytes; (D) MONO: monocytes; (E) EOS: eosinophils; (F) BASO: basophils. Data are means±SD (FIG. 28).

[5] = Renal and liver toxicity, serum biochemistry; assay type: in vivo; details: mice; 11 and 18 days after treatment starting
Procedure: Serum for Biochemistry were collected at least 400 μL of blood and putted it in an eppendorf tube with or without (plasma/serum) anticoagulant. The samples were left at environment temperature for at least 30′ minutes, then centrifuged at 500 g for 10 min, the supernatants were collected, being careful not to take the precipitate and analyzed for Biochemical tests. […] (A) Urea; (B) Creatinine; (C) Albumine, (D) AST; aspartate aminotransferase; (E) ALT: alanine aminotransferase. (FIG. 29)

HOC84 stem cells = details: naturally resistant to carboplatin, 96 h, CPT 40 μg/mL

B1: anti-EPO (C4): isolated anti-Erythropoietin monoclonal antibody, VL SEQ ID NO:6, VH SEQ ID NO:14, hybridoma DSM ACC 3370 (antibody, listed as Homo sapiens, V domains shown)
VH: EVKLQESGGGLVQPGGSLKLSCAASGFTFSTYTMSWVRQTPEKRLEWVAYISNGGDRTYYPDTVKGRFTISRDDAKNTLFLQMSSLKSEDTAMYYCARHNITTVPFTMDYWGQGTSVTVSS
VL: DIVLTQSPASLAVSLGQRATISCRASESVDYYGTGLMQWYQQRPGQPPKLLIYGASNVGSGVPARFSGSGSGTDFSLNIHPVEGDDIAMYFCQQTRKVPSTFGGGTKLEIK
modifications: VH amino acid sequence; VL amino acid sequence
Q: For B1, which “cells initially plated dead” value (A549 [1]) is on record?
A: 63%

Q: What about the “cells initially plated dead” value (HOC84) of the same molecule?
A: 68%

Q: And the “increment of apoptosis (caspase 3/7 activation)” value (“increment of apoptosis” below) (A2780)?
A: 234%

Q: What about the “increment of apoptosis” value (A549 [2]) of the same molecule?
A: 200%

Q: And the “increment of apoptosis” value (DLD1)?
A: 217%

Q: And the “increment of apoptosis” value (GBM-CSCs)?
A: 210%

Q: And the “increment of apoptosis” value (GECs)?
A: 220%

Q: And the “increment of apoptosis” value (GSCs)?
A: 200%

Q: And the “increment of apoptosis” value (K562)?
A: 180%

Q: And the “increment of apoptosis” value (LNCAP)?
A: 220%

Q: What about the “increment of apoptosis” value (MCF-7) of the same molecule?
A: 218%

Q: And the “increment of apoptosis” value (PC-3)?
A: 243%

Q: What about the “increment of apoptosis” value (SHSY-5Y) of the same molecule?
A: 200%

Q: And the “increment of apoptosis” value [3]?
A: 205%

Q: And the “decrease of total length of formed tubes” value (GBM-ECs)?
A: 70%

Q: What about the “formation of tubular-like structures” value (GBM-ECs; phase-contrast microscopy) of the same molecule?
A: able to block the formation of tubular-like structures

Q: And the “decrease of total length of formed tubes” value (S-ECs)?
A: 65%

Q: What about the “formation of tubular-like structures” value (S-ECs) of the same molecule?
A: able to block the formation of tubular-like structures

Q: What about the S1PR1 expression levels (S1PR1) of the same molecule?
A: decreased expression levels of S1 PR1

Q: What about the “blood count (hematological parameters)” value [4] of the same molecule?
A: no significant variations in all hematological parameters analyzed

Q: And the “serum biochemistry (urea, creatinine, albumine, AST, ALT)” value [5]?
A: no significant variations

Q: What about the mortality (HOC84 stem cells) of the same molecule?
A: 66%
